Measurements: the supplement of paper PMC10065799, “High-throughput profiling of sequence recognition by tyrosine kinases and SH2 domains using bacterial peptide display” (eLife, 2023)

Tests used:
Grb2 SH2 = Grb2 SH2 (UniProt P62993); experiment: SH2 binding enrichment of the phosphorylated peptide, bacterial display (enrichment ratio); higher = better substrate or ligand; peptides without Tyr show the background
SHP2-C SH2 = experiment: as above
c-Src SH2 = experiment: as above
Fes = Fes (UniProt P07332); experiment: phosphorylation enrichment, bacterial display (enrichment ratio); higher = better substrate or ligand; peptides without Tyr show the background
c-Abl (mouse) = experiment: as above
AncSZ = experiment: as above
c-Src = experiment: as above
MERTK = MERTK (UniProt Q12866); experiment: as above
Hck = Hck (UniProt P08631); experiment: as above
EPHB1 = EPHB1 (UniProt P54762); experiment: as above
Fyn = Fyn (UniProt P06241); experiment: as above
Fer (mouse) = experiment: as above
Jak2 = Jak2 (UniProt O60674); experiment: as above
FGFR3 = FGFR3 (UniProt P22607); experiment: as above
FGFR1 = FGFR1 (UniProt P11362); experiment: as above
EPHB2 = EPHB2 (UniProt P29323); experiment: as above
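Wherever SH2 binding enrichment of the phosphorylated peptide, bacterial display is given: peptide library displayed on the E. coli surface as eCPX fusions, selected cells deep-sequenced, score is each peptide's frequency after selection divided by its frequency in the input.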
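Wherever phosphorylation enrichment, bacterial display is given: 11-residue human phosphosite peptides and single-mutation variants displayed on the E. coli surface, counted by deep sequencing, each peptide's frequency after selection divided by its frequency in the unselected input library; frequency after pTyr selection over input frequency; kinase dosed for 20-30% of maximal phosphorylation in three min.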

Chain of Grb2 SH2 (P62993 whole entry, looked up): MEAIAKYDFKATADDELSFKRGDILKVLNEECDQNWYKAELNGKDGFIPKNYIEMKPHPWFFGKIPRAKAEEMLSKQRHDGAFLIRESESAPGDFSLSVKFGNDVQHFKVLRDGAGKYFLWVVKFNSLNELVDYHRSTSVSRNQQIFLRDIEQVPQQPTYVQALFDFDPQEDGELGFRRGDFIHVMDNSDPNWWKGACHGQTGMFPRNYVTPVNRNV
Chain of FGFR3 (P22607 whole entry, looked up): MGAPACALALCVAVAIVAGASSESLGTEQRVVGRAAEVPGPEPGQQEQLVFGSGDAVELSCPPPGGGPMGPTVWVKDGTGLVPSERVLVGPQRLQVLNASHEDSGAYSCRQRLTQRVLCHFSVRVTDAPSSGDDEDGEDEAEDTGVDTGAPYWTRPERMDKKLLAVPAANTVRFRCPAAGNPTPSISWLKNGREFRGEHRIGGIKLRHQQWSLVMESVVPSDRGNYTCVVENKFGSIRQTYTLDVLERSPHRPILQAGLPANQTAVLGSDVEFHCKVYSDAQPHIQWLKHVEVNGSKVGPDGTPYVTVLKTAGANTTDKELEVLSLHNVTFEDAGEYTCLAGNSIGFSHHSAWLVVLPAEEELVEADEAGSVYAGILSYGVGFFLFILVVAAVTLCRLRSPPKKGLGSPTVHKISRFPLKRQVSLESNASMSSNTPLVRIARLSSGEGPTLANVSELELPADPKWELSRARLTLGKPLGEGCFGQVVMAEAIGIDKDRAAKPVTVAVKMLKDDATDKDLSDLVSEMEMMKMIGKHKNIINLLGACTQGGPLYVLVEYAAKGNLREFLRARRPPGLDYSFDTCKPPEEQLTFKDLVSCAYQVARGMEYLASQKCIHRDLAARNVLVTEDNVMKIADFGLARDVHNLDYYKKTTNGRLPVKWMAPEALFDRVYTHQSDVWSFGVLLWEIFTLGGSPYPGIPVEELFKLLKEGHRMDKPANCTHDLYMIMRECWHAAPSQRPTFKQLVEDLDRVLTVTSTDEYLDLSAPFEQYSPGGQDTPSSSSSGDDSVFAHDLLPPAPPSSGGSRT
Chain of Fyn (P06241 whole entry, looked up): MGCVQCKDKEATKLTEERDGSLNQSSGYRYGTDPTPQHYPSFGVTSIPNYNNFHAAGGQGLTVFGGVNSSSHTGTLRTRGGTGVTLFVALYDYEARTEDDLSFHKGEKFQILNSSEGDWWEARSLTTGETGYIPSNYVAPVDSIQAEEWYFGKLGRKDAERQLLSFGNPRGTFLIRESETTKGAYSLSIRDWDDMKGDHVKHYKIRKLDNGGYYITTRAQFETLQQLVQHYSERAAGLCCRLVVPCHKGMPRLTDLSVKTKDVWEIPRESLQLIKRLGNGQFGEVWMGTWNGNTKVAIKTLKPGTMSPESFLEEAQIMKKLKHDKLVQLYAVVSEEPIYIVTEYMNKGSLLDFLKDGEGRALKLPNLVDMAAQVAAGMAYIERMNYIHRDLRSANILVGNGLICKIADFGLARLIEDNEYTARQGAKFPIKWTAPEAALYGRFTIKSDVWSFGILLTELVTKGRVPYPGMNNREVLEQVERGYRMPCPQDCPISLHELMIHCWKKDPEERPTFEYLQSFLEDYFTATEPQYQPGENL
Chain of Hck (P08631 whole entry, looked up): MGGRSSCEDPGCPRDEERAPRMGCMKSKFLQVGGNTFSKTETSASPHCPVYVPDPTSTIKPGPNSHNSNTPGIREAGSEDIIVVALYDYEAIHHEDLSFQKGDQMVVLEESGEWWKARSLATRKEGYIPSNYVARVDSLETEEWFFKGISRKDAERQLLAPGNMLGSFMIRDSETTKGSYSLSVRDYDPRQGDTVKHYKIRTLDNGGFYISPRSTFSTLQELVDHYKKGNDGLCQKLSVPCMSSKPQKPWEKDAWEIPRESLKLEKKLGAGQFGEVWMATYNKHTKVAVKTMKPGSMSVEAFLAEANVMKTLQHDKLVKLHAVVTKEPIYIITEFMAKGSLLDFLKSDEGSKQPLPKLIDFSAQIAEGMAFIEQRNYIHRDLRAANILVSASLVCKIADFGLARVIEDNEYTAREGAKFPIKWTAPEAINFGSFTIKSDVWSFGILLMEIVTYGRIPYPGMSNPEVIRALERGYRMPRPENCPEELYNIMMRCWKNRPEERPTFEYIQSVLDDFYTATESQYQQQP
Chain of MERTK (Q12866 whole entry, looked up): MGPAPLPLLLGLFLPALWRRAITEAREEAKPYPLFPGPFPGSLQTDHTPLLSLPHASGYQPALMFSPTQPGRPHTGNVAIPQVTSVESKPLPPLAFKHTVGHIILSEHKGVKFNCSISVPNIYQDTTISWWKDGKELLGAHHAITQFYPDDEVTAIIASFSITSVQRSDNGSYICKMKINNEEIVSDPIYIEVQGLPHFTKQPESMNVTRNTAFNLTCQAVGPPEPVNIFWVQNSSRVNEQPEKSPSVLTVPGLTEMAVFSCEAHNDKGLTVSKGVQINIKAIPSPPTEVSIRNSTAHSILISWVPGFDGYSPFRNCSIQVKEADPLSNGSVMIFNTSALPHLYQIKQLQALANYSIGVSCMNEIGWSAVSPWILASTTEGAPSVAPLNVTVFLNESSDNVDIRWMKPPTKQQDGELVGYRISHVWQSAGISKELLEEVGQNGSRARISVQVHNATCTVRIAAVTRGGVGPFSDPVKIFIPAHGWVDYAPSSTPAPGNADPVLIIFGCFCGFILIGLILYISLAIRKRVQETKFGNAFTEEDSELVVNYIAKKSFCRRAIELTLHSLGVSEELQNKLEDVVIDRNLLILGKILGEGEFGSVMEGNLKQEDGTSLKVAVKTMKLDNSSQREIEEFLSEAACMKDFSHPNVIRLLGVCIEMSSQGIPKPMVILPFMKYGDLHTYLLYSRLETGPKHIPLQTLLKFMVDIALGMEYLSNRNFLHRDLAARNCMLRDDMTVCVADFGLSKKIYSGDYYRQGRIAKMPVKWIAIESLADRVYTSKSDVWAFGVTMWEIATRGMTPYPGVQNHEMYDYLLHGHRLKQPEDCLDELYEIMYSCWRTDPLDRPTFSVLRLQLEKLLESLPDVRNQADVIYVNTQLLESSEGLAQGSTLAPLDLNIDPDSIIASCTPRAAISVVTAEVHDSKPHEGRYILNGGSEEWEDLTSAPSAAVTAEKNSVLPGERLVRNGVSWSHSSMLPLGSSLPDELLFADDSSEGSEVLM
Chain of EPHB1 (P54762 whole entry, looked up): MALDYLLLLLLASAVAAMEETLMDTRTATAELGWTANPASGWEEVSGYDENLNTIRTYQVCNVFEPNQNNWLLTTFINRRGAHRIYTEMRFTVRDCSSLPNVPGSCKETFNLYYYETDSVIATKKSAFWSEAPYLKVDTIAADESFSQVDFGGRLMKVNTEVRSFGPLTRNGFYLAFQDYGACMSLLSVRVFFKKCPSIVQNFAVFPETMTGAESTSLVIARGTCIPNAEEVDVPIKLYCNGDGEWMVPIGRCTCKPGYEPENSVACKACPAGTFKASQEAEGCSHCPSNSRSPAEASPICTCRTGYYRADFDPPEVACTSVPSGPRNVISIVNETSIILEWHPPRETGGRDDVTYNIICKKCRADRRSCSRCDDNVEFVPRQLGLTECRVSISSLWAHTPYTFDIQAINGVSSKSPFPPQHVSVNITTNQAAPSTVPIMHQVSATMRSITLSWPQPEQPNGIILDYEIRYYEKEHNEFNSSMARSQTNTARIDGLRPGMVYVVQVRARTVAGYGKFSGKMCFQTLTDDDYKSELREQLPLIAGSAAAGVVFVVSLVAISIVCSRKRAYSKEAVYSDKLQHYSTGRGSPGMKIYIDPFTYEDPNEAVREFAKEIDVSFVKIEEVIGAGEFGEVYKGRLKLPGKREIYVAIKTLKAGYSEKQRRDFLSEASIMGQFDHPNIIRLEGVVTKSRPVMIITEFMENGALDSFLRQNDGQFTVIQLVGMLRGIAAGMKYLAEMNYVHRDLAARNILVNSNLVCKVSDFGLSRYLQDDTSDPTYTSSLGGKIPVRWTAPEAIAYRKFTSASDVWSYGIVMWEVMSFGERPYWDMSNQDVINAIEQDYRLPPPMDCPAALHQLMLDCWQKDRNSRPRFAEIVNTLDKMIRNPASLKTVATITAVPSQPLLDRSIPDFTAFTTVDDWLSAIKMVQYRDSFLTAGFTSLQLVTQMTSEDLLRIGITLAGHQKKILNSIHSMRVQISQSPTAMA
Chain of Fes (P07332 whole entry, looked up): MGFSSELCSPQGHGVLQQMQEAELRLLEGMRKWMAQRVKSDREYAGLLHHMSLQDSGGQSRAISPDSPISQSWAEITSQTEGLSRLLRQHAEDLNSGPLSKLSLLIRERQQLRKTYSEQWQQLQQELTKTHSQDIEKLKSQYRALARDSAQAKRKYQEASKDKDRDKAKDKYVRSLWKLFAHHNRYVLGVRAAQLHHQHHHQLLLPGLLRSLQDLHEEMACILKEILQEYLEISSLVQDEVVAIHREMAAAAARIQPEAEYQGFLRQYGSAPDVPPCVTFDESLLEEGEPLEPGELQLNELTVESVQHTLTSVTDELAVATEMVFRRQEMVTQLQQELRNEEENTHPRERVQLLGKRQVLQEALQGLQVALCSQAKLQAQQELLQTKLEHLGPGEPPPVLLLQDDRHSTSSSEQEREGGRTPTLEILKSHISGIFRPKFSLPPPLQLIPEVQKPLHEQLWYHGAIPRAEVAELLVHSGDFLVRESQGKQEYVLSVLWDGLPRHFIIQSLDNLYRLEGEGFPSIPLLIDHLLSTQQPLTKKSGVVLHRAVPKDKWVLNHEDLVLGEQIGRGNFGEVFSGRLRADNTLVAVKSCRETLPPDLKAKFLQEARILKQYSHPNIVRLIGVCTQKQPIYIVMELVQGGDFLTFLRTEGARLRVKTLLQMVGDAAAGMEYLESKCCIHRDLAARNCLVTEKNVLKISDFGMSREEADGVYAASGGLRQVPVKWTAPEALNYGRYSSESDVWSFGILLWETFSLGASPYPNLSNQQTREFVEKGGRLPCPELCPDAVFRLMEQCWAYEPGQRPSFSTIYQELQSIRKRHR

| Sequence | SH2 binding enrichment (Grb2 SH2) | SH2 binding enrichment (SHP2-C SH2) | SH2 binding enrichment (c-Src SH2) | phosphorylation enrichment (Fes) | phosphorylation enrichment (c-Abl (mouse)) | phosphorylation enrichment (AncSZ) | phosphorylation enrichment (c-Src) | phosphorylation enrichment (MERTK) | phosphorylation enrichment (Hck) | phosphorylation enrichment (EPHB1) | phosphorylation enrichment (Fyn) | phosphorylation enrichment (Fer (mouse)) | phosphorylation enrichment (Jak2) | phosphorylation enrichment (FGFR3) | phosphorylation enrichment (FGFR1) | phosphorylation enrichment (EPHB2) |
| --- | --- | --- | --- | --- | --- | --- | --- | --- | --- | --- | --- | --- | --- | --- | --- | --- |
| EDSEYYRAFEE [CASQ2_Y179_K180R] | 0.939 | 0.559 | 0.411 | 1.6 | 0.915 | 2.96 | 0.754 | 0.497 | 0.675 | 0.823 | 0.765 | 0.518 | 1.37 | 1.26 | 0.937 | 0.724 |
| LRAGVYPEKDQ [DNM2_Y626] | 0.611 | 0.779 | 0.509 | 0.971 | 0.803 | 0.754 | 0.507 | 0.43 | 0.662 | 0.443 | 0.454 | 0.39 | 0.773 | 0.633 | 0.467 | 0.498 |
| NKPTVCGVSPN [ABL1_Y226_Y226C] | 0.952 | 0.841 | 0.559 | 0.919 | 0.996 | 0.655 | 0.5 | 0.467 | 0.404 | 0.476 | 0.439 | 0.441 | 0.759 | 0.589 | 0.526 | 0.536 |
| DRLANYLEKVR [KRT40_Y103_S102N] | 0.764 | 0.731 | 0.339 | 0.74 | 0.469 | 0.651 | 0.395 | 0.41 | 0.38 | 0.337 | 0.399 | 0.373 | 0.587 | 0.64 | 0.382 | 0.424 |
| GCLSKYSGVFS [TUBGCP6_Y1624_V1621L] | 1.04 | 1.07 | 0.723 | 1.01 | 0.673 | 0.778 | 0.509 | 0.46 | 0.542 | 0.52 | 0.51 | 0.514 | 1.19 | 0.565 | 0.425 | 0.543 |
| LLEGKYEWQEV [CDKN1B_Y74_P69L] | 0.801 | 0.464 | 3.24 | 2.74 | 1.79 | 2 | 1.01 | 0.964 | 0.889 | 1.45 | 0.908 | 1.75 | 3 | 1.48 | 1.14 | 1.43 |
| SGIFQYIIAKF [FOXL2_Y83_YF] | 1.35 | 1.27 | 0.763 | 1.13 | 0.84 | 1.14 | 0.561 | 0.518 | 0.546 | 0.602 | 0.496 | 0.503 | 1.07 | 0.704 | 0.639 | 0.564 |
| PPGRSYSPFDF [TNS1_Y793_YF] | 1.16 | 0.878 | 0.512 | 0.81 | 0.602 | 0.824 | 0.497 | 0.598 | 0.6 | 0.4 | 0.635 | 1.1 | 0.843 | 0.75 | 0.505 | 0.599 |
| HSKGIYYVQLE [MGAT4B_Y262_Q257H] | 1.08 | 1.76 | 1.31 | 1.39 | 1.02 | 1.28 | 4.78 | 9.49 | 2.88 | 1.68 | 3.29 | 0.615 | 4.4 | 3.3 | 5.54 | 1.03 |
| AEYGLYGAMVR [VSX2_Y222] | 0.806 | 0.636 | 0.508 | 0.786 | 0.908 | 0.99 | 5.06 | 1.97 | 6.91 | 0.824 | 7.64 | 2.03 | 0.675 | 0.604 | 0.456 | 2.5 |
| QELRRYLKSGI [MICA_Y194_V199I] | 0.747 | 0.525 | 0.434 | 0.458 | 0.402 | 0.489 | 0.294 | 0.406 | 0.496 | 0.332 | 0.482 | 0.534 | 0.335 | 0.313 | 0.429 | 0.281 |
| LFSINYLHFGE [KDM4C_Y201_YF] | 1.38 | 2.78 | 1.27 | 1.6 | 0.953 | 1.35 | 0.528 | 0.634 | 0.65 | 1.3 | 0.624 | 0.822 | 1.29 | 0.899 | 0.902 | 0.661 |
| NKYTTYLPRLP [C9orf24_Y126] | 0.905 | 0.776 | 0.991 | 0.684 | 0.625 | 0.575 | 0.616 | 0.483 | 0.714 | 0.454 | 0.51 | 0.38 | 0.706 | 0.418 | 0.402 | 0.386 |
| VPVDGYISGLL [PAK6_Y81_M76V] | 0.893 | 0.568 | 0.573 | 1.01 | 0.745 | 0.911 | 0.657 | 0.602 | 0.542 | 0.75 | 0.519 | 0.559 | 1.18 | 0.656 | 0.568 | 0.85 |
| AVLSLCASGRT [ACTA2_Y145_Y145C] | 0.807 | 0.857 | 0.488 | 0.955 | 0.606 | 0.898 | 0.357 | 0.402 | 0.448 | 0.58 | 0.366 | 0.545 | 0.959 | 0.592 | 0.505 | 0.639 |
| YGEYRYRSVIK [CFTR_Y517_D513G] | 0.769 | 0.819 | 0.817 | 0.826 | 0.745 | 0.714 | 4.36 | 0.463 | 3.67 | 0.458 | 7.2 | 0.49 | 0.599 | 0.644 | 0.454 | 0.462 |
| RNIQQHNSFVS [PRKAR1A_Y373_Y373H] | 0.806 | 0.694 | 0.557 | 0.451 | 0.438 | 0.601 | 0.367 | 0.329 | 0.378 | 0.604 | 0.443 | 0.379 | 0.461 | 0.448 | 0.42 | 0.343 |
